{
  "source": "the supplement of paper PMC10567573",
  "parents": {"B1": {"name": "ZNF511 (parent)", "chain": "FDALDDYEHHYHTLHGNVCSFCKR"}, "B2": {"name": "VENTX (parent)", "chain": "VFQHHQYLSPLERKRLAREMQLSE"}},
  "data": [
    {"variants_of": "B1", "assay": "protein stability index of a GFP-peptide fusion (GPS, HEK-293T) (PSI 1-6); higher = more stable", "details": "c terminus: a fixed tail appended", "values": [
      {"variant": "FDALDDYEHHYHTLHGNVASFCKR", "note": "[C19A]", "protein stability index": 3.11},
      {"variant": "FDALDDYEHHYHTLHGNVKSFCKR", "note": "[C19K]", "protein stability index": 3.27},
      {"variant": "FDALDDYEHHYHTLHGNVSSFCKR", "note": "[C19S]", "protein stability index": 3.04},
      {"variant": "FDALDDYEHHYHTLHGNVTSFCKR", "note": "[C19T]", "protein stability index": 3.41},
      {"variant": "FDALDDYEHHYHTLHGNVQSFCKR", "note": "[C19Q]", "protein stability index": 2.92},
      {"variant": "FDALDDYEHHYHTLHGNVDSFCKR", "note": "[C19D]", "protein stability index": 3.36},
      {"variant": "FDALDDYEHHYHTLHGNVLSFCKR", "note": "[C19L]", "protein stability index": 3.71},
      {"variant": "FDALDDGEHHYHTLHGNVCSFCKR", "note": "[Y7G]", "protein stability index": 4.16},
      {"variant": "FDALDDFEHHYHTLHGNVCSFCKR", "note": "[Y7F]", "protein stability index": 3.24},
      {"variant": "FDALDDLEHHYHTLHGNVCSFCKR", "note": "[Y7L]", "protein stability index": 3.54},
      {"variant": "FDALDDKEHHYHTLHGNVCSFCKR", "note": "[Y7K]", "protein stability index": 4.44},
      {"variant": "FDALDDYEHHAHTLHGNVCSFCKR", "note": "[Y11A]", "protein stability index": 4.39},
      {"variant": "FDALDDYEHHNHTLHGNVCSFCKR", "note": "[Y11N]", "protein stability index": 4.38},
      {"variant": "FDALDDYEHHGHTLHGNVCSFCKR", "note": "[Y11G]", "protein stability index": 4.01},
      {"variant": "FDALDDYEHHKHTLHGNVCSFCKR", "note": "[Y11K]", "protein stability index": 4.28},
      {"variant": "FDALDDYEHHIHTLHGNVCSFCKR", "note": "[Y11I]", "protein stability index": 4.2},
      {"variant": "FDALDDYEHHPHTLHGNVCSFCKR", "note": "[Y11P]", "protein stability index": 3.22},
      {"variant": "FDALDDYEHHYHTLHGNMCSFCKR", "note": "[V18M]", "protein stability index": 3.68},
      {"variant": "FDALDDYEHHYHTLHGNRCSFCKR", "note": "[V18R]", "protein stability index": 3.88},
      {"variant": "FDALDDYEHHYHTLHGNVCSFCCR", "note": "[K23C]", "protein stability index": 3.25},
      {"variant": "FDALDDYEHHYHTLHGNVCSFCDR", "note": "[K23D]", "protein stability index": 3.45},
      {"variant": "FDALDDYEHHYHTLHGNVCMFCKR", "note": "[S20M]", "protein stability index": 4.04},
      {"variant": "FDALDDYEHHYHTLHGNVCWFCKR", "note": "[S20W]", "protein stability index": 2.63},
      {"variant": "FDALDDYEHHYHTLHGNVCNFCKR", "note": "[S20N]", "protein stability index": 3.74},
      {"variant": "FDALDDYEHHYHTLHGNVCTFCKR", "note": "[S20T]", "protein stability index": 3.81},
      {"variant": "FDALDDYEHPYHTLHGNVCSFCKR", "note": "[H10P]", "protein stability index": 2.76},
      {"variant": "FDALDDYEHKYHTLHGNVCSFCKR", "note": "[H10K]", "protein stability index": 3.24},
      {"variant": "FDALDDYEHLYHTLHGNVCSFCKR", "note": "[H10L]", "protein stability index": 2.62},
      {"variant": "FDALDDYEHAYHTLHGNVCSFCKR", "note": "[H10A]", "protein stability index": 2.94},
      {"variant": "FDALDDYEHTYHTLHGNVCSFCKR", "note": "[H10T]", "protein stability index": 3.4},
      {"variant": "FDALDDYEHHYCTLHGNVCSFCKR", "note": "[H12C]", "protein stability index": 4.18},
      {"variant": "FDALDDYEHHYSTLHGNVCSFCKR", "note": "[H12S]", "protein stability index": 3.12},
      {"variant": "FDALDDYEHHYLTLHGNVCSFCKR", "note": "[H12L]", "protein stability index": 2.71},
      {"variant": "FDALDDYEHHYQTLHGNVCSFCKR", "note": "[H12Q]", "protein stability index": 3.3},
      {"variant": "FDALFDYEHHYHTLHGNVCSFCKR", "note": "[D5F]", "protein stability index": 2.5},
      {"variant": "FDALCDYEHHYHTLHGNVCSFCKR", "note": "[D5C]", "protein stability index": 4},
      {"variant": "FDALQDYEHHYHTLHGNVCSFCKR", "note": "[D5Q]", "protein stability index": 3.86},
      {"variant": "FDALSDYEHHYHTLHGNVCSFCKR", "note": "[D5S]", "protein stability index": 3.24},
      {"variant": "FDALDDYEHHYHRLHGNVCSFCKR", "note": "[T13R]", "protein stability index": 3.07},
      {"variant": "FDALDDYEHHYHTLHGTVCSFCKR", "note": "[N17T]", "protein stability index": 3.5},
      {"variant": "FDALDDYEHHYHTLHGLVCSFCKR", "note": "[N17L]", "protein stability index": 2.29},
      {"variant": "FFALDDYEHHYHTLHGNVCSFCKR", "note": "[D2F]", "protein stability index": 2.48},
      {"variant": "FYALDDYEHHYHTLHGNVCSFCKR", "note": "[D2Y]", "protein stability index": 3.1},
      {"variant": "FQALDDYEHHYHTLHGNVCSFCKR", "note": "[D2Q]", "protein stability index": 2.93},
      {"variant": "FNALDDYEHHYHTLHGNVCSFCKR", "note": "[D2N]", "protein stability index": 3.06},
      {"variant": "FKALDDYEHHYHTLHGNVCSFCKR", "note": "[D2K]", "protein stability index": 3.78},
      {"variant": "FCALDDYEHHYHTLHGNVCSFCKR", "note": "[D2C]", "protein stability index": 3.17},
      {"variant": "FDALDDYEHHYHTLHGNVCSFRKR", "note": "[C22R]", "protein stability index": 2.73},
      {"variant": "FDELDDYEHHYHTLHGNVCSFCKR", "note": "[A3E]", "protein stability index": 4.08},
      {"variant": "FDHLDDYEHHYHTLHGNVCSFCKR", "note": "[A3H]", "protein stability index": 3.63},
      {"variant": "FDDLDDYEHHYHTLHGNVCSFCKR", "note": "[A3D]", "protein stability index": 3.72},
      {"variant": "FDYLDDYEHHYHTLHGNVCSFCKR", "note": "[A3Y]", "protein stability index": 3.54},
      {"variant": "FDLLDDYEHHYHTLHGNVCSFCKR", "note": "[A3L]", "protein stability index": 3.69},
      {"variant": "FDALDDYQHHYHTLHGNVCSFCKR", "note": "[E8Q]", "protein stability index": 3.63},
      {"variant": "FDALDDYNHHYHTLHGNVCSFCKR", "note": "[E8N]", "protein stability index": 3.3},
      {"variant": "FDALDDYRHHYHTLHGNVCSFCKR", "note": "[E8R]", "protein stability index": 3.55},
      {"variant": "FDALDDYEHHYHTLFGNVCSFCKR", "note": "[H15F]", "protein stability index": 2.26},
      {"variant": "FDALDDYEHHYHTLHINVCSFCKR", "note": "[G16I]", "protein stability index": 3.15},
      {"variant": "FDALDDYEHHYHTLHHNVCSFCKR", "note": "[G16H]", "protein stability index": 3.5},
      {"variant": "FDALDDYEHHYHTLHGNVCSYCKR", "note": "[F21Y]", "protein stability index": 3.64},
      {"variant": "FDALDDYEHHYHTLHGNVCSTCKR", "note": "[F21T]", "protein stability index": 4.28},
      {"variant": "FDALDDYEHHYHTLHGNVCSKCKR", "note": "[F21K]", "protein stability index": 4.2},
      {"variant": "MDALDDYEHHYHTLHGNVCSFCKR", "note": "[F1M]", "protein stability index": 4.59},
      {"variant": "LDALDDYEHHYHTLHGNVCSFCKR", "note": "[F1L]", "protein stability index": 4.31},
      {"variant": "FDALDHYEHHYHTLHGNVCSFCKR", "note": "[D6H]", "protein stability index": 3.96},
      {"variant": "FDALDVYEHHYHTLHGNVCSFCKR", "note": "[D6V]", "protein stability index": 2.98},
      {"variant": "FDALDDYEHHYHTLHGNVCSFCKN", "note": "[R24N]", "protein stability index": 4.02},
      {"variant": "FDALDDYEHHYHTLHGNVCSFCKY", "note": "[R24Y]", "protein stability index": 2.88},
      {"variant": "FDALDDYEHHYHTLHGNVCSFCKS", "note": "[R24S]", "protein stability index": 3.8},
      {"variant": "FDALDDYEHHYHTLHGNVCSFCKP", "note": "[R24P]", "protein stability index": 3.17},
      {"variant": "FDALDDYEHHYHTTHGNVCSFCKR", "note": "[L14T]", "protein stability index": 4.04},
      {"variant": "FDALDDYEHHYHTDHGNVCSFCKR", "note": "[L14D]", "protein stability index": 4.33},
      {"variant": "FDAVDDYEHHYHTLHGNVCSFCKR", "note": "[L4V]", "protein stability index": 3.75},
      {"variant": "FDAQDDYEHHYHTLHGNVCSFCKR", "note": "[L4Q]", "protein stability index": 4.18},
      {"variant": "FDARDDYEHHYHTLHGNVCSFCKR", "note": "[L4R]", "protein stability index": 3.93},
      {"variant": "FDAWDDYEHHYHTLHGNVCSFCKR", "note": "[L4W]", "protein stability index": 3.43}
    ]},
    {"variants_of": "B2", "assay": "protein stability index of a GFP-peptide fusion (GPS, HEK-293T) (PSI 1-6); higher = more stable", "details": "c terminus: a fixed tail appended", "values": [
      {"variant": "AFQHHQYLSPLERKRLAREMQLSE", "note": "[V1A]", "protein stability index": 2.28},
      {"variant": "KFQHHQYLSPLERKRLAREMQLSE", "note": "[V1K]", "protein stability index": 2.6},
      {"variant": "HFQHHQYLSPLERKRLAREMQLSE", "note": "[V1H]", "protein stability index": 2.34},
      {"variant": "FFQHHQYLSPLERKRLAREMQLSE", "note": "[V1F]", "protein stability index": 2.1},
      {"variant": "QFQHHQYLSPLERKRLAREMQLSE", "note": "[V1Q]", "protein stability index": 2.19},
      {"variant": "GFQHHQYLSPLERKRLAREMQLSE", "note": "[V1G]", "protein stability index": 2.09},
      {"variant": "LFQHHQYLSPLERKRLAREMQLSE", "note": "[V1L]", "protein stability index": 3.38},
      {"variant": "PFQHHQYLSPLERKRLAREMQLSE", "note": "[V1P]", "protein stability index": 2.35},
      {"variant": "EFQHHQYLSPLERKRLAREMQLSE", "note": "[V1E]", "protein stability index": 2.49},
      {"variant": "DFQHHQYLSPLERKRLAREMQLSE", "note": "[V1D]", "protein stability index": 2.83},
      {"variant": "NFQHHQYLSPLERKRLAREMQLSE", "note": "[V1N]", "protein stability index": 2.9},
      {"variant": "CFQHHQYLSPLERKRLAREMQLSE", "note": "[V1C]", "protein stability index": 2.45},
      {"variant": "IFQHHQYLSPLERKRLAREMQLSE", "note": "[V1I]", "protein stability index": 2.36},
      {"variant": "RFQHHQYLSPLERKRLAREMQLSE", "note": "[V1R]", "protein stability index": 2.42},
      {"variant": "MFQHHQYLSPLERKRLAREMQLSE", "note": "[V1M]", "protein stability index": 2.38},
      {"variant": "TFQHHQYLSPLERKRLAREMQLSE", "note": "[V1T]", "protein stability index": 2.88},
      {"variant": "WFQHHQYLSPLERKRLAREMQLSE", "note": "[V1W]", "protein stability index": 1.92},
      {"variant": "SFQHHQYLSPLERKRLAREMQLSE", "note": "[V1S]", "protein stability index": 3.1}
    ]}
  ]
}
